# T1: human progastrin (human)
# T1 construct: 80-residue progastrin; also called hPG; PG
# T1 chain: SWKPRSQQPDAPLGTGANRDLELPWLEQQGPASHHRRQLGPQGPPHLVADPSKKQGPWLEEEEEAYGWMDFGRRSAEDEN
# Target: T1, human progastrin
# Assay: epitope mapping (no details given)
row,Binder,binding result
1,"mAb16 (antibody, V domains shown, Murine monoclonal antibody from a hybridoma; also called hybridoma 1E9D9B6) VH: QVQLQQSGAELVKPGASVKLSCKASGYTFTSYYMYWVKQRPGQGLEWIGEINPSNGGTNFNEKFKSKATLTVDKSSSTAYMQLSSLTSEDSAVYYCTRGGYYPFDYWGQGTTLTVSS VL: not shown",binds
2,"mAb13 (antibody, V domains shown, Murine monoclonal antibody from a hybridoma; also called hybridoma 2C6C3C7) VH: EVQLVESGGGLVQPGGSLKLSCAASGFIFSSYGMSWVRQSPDRRLELVASINTFGDRTYYPDSVKGRFTISRDNAKNTLYLQMTSLKSEDTAIYYCARGTGTYWGQGTTLTVSS VL: not shown",binds
3,"mAb4 (antibody, V domains shown, Murine monoclonal antibody from a hybridoma; also called hybridoma 20D2C3G2) VH: QVQLQQSGAELMKPGASVKISCKATGYTFSSSWIEWLKQRPGHGLEWIGEFLPGSGSTDYNEKFKGKATFTADTSSDTAYMLLSSLTSEDSAVYYCATDGNYDWFAYWGQGTLVTVSA VL: DLVMTQTPLSLPVSLGDQASISCRSSQSLVHSSGVTYLHWYLQKPGQSPKLLIYKVSNRFSGVPDRFSGSGSGTDFTLKISRVEAEDLGVYFCSQSTHVPPTFGSGTKLEIK",binds
4,"mAb3 (antibody, V domains shown, Murine monoclonal antibody from a hybridoma; also called hybridoma 6B5B11C10) VH: EVQLQQSGTVLARPGASVKMSCKASGYIFTSYWVHWVKQRPGQGLEWIGGFYPGNSDSRYNQKFKGKATLTAVTSASTAYMDLSSLTNEDSAVYFCTRRDSPQYWGQGTTLTVSS VL: DVLMTQTPLSLPVSLGDQASISCRSSQSIVHSNGNTYLEWYLQKPGQSPKLLIYKVSNRFSGVPDRFSGSGSGTDFTLKISRLEAEDLGVYYCFQGSHVPFTFGGGTKLEIK",binds
5,"mAb19 (antibody, V domains shown, Murine monoclonal antibody from a hybridoma; also called hybridoma 1B3B4F11) VH: DVQLQESGPGLVKPSQSLSLTCTVTGYSITSDYAWNWIRQFPGNKLEWMGYISFSGYTSYNPSLKSRISVTRDTSRNQFFLQLTSVTTEDTATYYCAREVNYGDSYHFDYWGQGTIVTVSS VL: QLALTQSSSASFSLGASAKLTCTLSSQHRTYTIEWYQQQSLKPPKYVMEVKKDGSHSTGHGIPDRFSGSSSGADRYLSISNIQPEDEAIYICGVGDAIKGQSVFVFGGGTKVTVL",binds

# — patent US20210324069A1 (PROGASTRINE ET CANCERS S R L, published 2021)
